Measured values from patent publication US20210032299A1 (Eli Lilly, published 2021).
Starred links: 1 amine or outer side, 2 acyl side, 3 side chain; linkers in the order of their positions; H or OH if unused. Non-standard residues stand in square brackets, D forms with d. Groups on a side chain read outwards from the residue. No end group written: not given here. *: point of attachment. C20 diacid = O=C(O)CCCCCCCCCCCCCCCCCCC(=O)*; γGlu = O=C(O)[C@H](CCC(=O)[*:2])N[*:1]; αMeF = C[C@](N)(Cc1ccccc1)C(=O)O; 4Pal = N[C@@H](Cc1ccncc1)C(=O)O; αMeL = CC(C)C[C@](C)(N)C(=O)O; Orn = NCCC[C@H](N)C(=O)O; AEEA = NCCOCCOCC(=O)O; Aib = CC(C)(N)C(=O)O

T1: human glucose-dependent insulinotropic polypeptide (GIP) receptor (human, UniProt P48546 22-466)
T1 construct: whole, on cells; Assayed as crude membranes of stably transfected CHO cells; also called hGIPR; human GIP receptor
T1 sequence (looked up): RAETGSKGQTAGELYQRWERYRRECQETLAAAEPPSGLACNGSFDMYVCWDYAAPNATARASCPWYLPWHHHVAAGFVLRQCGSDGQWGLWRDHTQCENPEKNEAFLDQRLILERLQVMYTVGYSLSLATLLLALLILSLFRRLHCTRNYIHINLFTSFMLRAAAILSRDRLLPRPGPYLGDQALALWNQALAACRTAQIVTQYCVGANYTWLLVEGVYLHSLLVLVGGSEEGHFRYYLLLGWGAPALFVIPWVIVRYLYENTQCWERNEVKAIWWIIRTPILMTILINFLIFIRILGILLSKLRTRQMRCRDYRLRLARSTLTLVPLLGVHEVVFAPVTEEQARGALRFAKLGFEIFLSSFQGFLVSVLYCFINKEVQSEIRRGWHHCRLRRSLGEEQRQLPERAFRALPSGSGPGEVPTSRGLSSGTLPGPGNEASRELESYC

B1: Example 81 (peptide)
peptide: Y[Aib]EGTFISDYSI[αMeL]LD[Orn]K([AEEA-AEEA-γGlu-C20 diacid])HQ[Aib]DFVE[4Pal]LLEQGPSSGAPPPS-NH2
modifications: N-terminus assumed
SMILES: CC[C@H](C)[C@H](NC(=O)[C@H](Cc1ccccc1)NC(=O)[C@@H](NC(=O)CNC(=O)[C@H](CCC(=O)O)NC(=O)C(C)(C)NC(=O)[C@@H](N)Cc1ccc(O)cc1)[C@@H](C)O)C(=O)N[C@@H](CO)C(=O)N[C@@H](CC(=O)O)C(=O)N[C@@H](Cc1ccc(O)cc1)C(=O)N[C@@H](CO)C(=O)N[C@H](C(=O)N[C@@](C)(CC(C)C)C(=O)N[C@@H](CC(C)C)C(=O)N[C@@H](CC(=O)O)C(=O)N[C@@H](CCCN)C(=O)N[C@@H](CCCCNC(=O)COCCOCCNC(=O)COCCOCCNC(=O)CC[C@H](NC(=O)CCCCCCCCCCCCCCCCCCC(=O)O)C(=O)O)C(=O)N[C@@H](Cc1c[nH]cn1)C(=O)N[C@@H](CCC(N)=O)C(=O)NC(C)(C)C(=O)N[C@@H](CC(=O)O)C(=O)N[C@@H](Cc1ccccc1)C(=O)N[C@H](C(=O)N[C@@H](CCC(=O)O)C(=O)N[C@@H](Cc1ccncc1)C(=O)N[C@@H](CC(C)C)C(=O)N[C@@H](CC(C)C)C(=O)N[C@@H](CCC(=O)O)C(=O)N[C@@H](CCC(N)=O)C(=O)NCC(=O)N1CCC[C@H]1C(=O)N[C@@H](CO)C(=O)N[C@@H](CO)C(=O)NCC(=O)N[C@@H](C)C(=O)N1CCC[C@H]1C(=O)N1CCC[C@H]1C(=O)N1CCC[C@H]1C(=O)N[C@@H](CO)C(N)=O)C(C)C)[C@@H](C)CC
B2: Example 82 (peptide)
peptide: Y[Aib]EGTFISDYSI[αMeL]LD[Orn]K([AEEA-AEEA-γGlu-C20 diacid])HQ[Aib]DFVE[4Pal]LLEGGPSSGAPPPS-NH2
modifications: N-terminus assumed
SMILES: CC[C@H](C)[C@H](NC(=O)[C@H](Cc1ccccc1)NC(=O)[C@@H](NC(=O)CNC(=O)[C@H](CCC(=O)O)NC(=O)C(C)(C)NC(=O)[C@@H](N)Cc1ccc(O)cc1)[C@@H](C)O)C(=O)N[C@@H](CO)C(=O)N[C@@H](CC(=O)O)C(=O)N[C@@H](Cc1ccc(O)cc1)C(=O)N[C@@H](CO)C(=O)N[C@H](C(=O)N[C@@](C)(CC(C)C)C(=O)N[C@@H](CC(C)C)C(=O)N[C@@H](CC(=O)O)C(=O)N[C@@H](CCCN)C(=O)N[C@@H](CCCCNC(=O)COCCOCCNC(=O)COCCOCCNC(=O)CC[C@H](NC(=O)CCCCCCCCCCCCCCCCCCC(=O)O)C(=O)O)C(=O)N[C@@H](Cc1c[nH]cn1)C(=O)N[C@@H](CCC(N)=O)C(=O)NC(C)(C)C(=O)N[C@@H](CC(=O)O)C(=O)N[C@@H](Cc1ccccc1)C(=O)N[C@H](C(=O)N[C@@H](CCC(=O)O)C(=O)N[C@@H](Cc1ccncc1)C(=O)N[C@@H](CC(C)C)C(=O)N[C@@H](CC(C)C)C(=O)N[C@@H](CCC(=O)O)C(=O)NCC(=O)NCC(=O)N1CCC[C@H]1C(=O)N[C@@H](CO)C(=O)N[C@@H](CO)C(=O)NCC(=O)N[C@@H](C)C(=O)N1CCC[C@H]1C(=O)N1CCC[C@H]1C(=O)N1CCC[C@H]1C(=O)N[C@@H](CO)C(N)=O)C(C)C)[C@@H](C)CC
B3: Example 76 (peptide)
peptide: YXEGTXISDYSIXLDXKHQXDFVEXLLEGGPSSGAPPPS
modifications: Aib2; Iva6; αMeL13; Orn16; K17((2-[2-(2-Amino-ethoxy)-ethoxy]-acetyl)2-(γ-Glu)-CO-(CH2)18-CO2H); Aib20; 4-Pal25; C-terminal amide
B4: Example 56 (peptide)
peptide: Y[Aib]EGTFISDYSI[αMeL]LDKK([AEEA-AEEA-γGlu-C20 diacid])HQ[Aib]D[αMeF]VE[4Pal]LLAGGPSSGAPPPS-NH2
modifications: N-terminus assumed
SMILES: CC[C@H](C)[C@H](NC(=O)[C@H](Cc1ccccc1)NC(=O)[C@@H](NC(=O)CNC(=O)[C@H](CCC(=O)O)NC(=O)C(C)(C)NC(=O)[C@@H](N)Cc1ccc(O)cc1)[C@@H](C)O)C(=O)N[C@@H](CO)C(=O)N[C@@H](CC(=O)O)C(=O)N[C@@H](Cc1ccc(O)cc1)C(=O)N[C@@H](CO)C(=O)N[C@H](C(=O)N[C@@](C)(CC(C)C)C(=O)N[C@@H](CC(C)C)C(=O)N[C@@H](CC(=O)O)C(=O)N[C@@H](CCCCN)C(=O)N[C@@H](CCCCNC(=O)COCCOCCNC(=O)COCCOCCNC(=O)CC[C@H](NC(=O)CCCCCCCCCCCCCCCCCCC(=O)O)C(=O)O)C(=O)N[C@@H](Cc1c[nH]cn1)C(=O)N[C@@H](CCC(N)=O)C(=O)NC(C)(C)C(=O)N[C@@H](CC(=O)O)C(=O)N[C@@](C)(Cc1ccccc1)C(=O)N[C@H](C(=O)N[C@@H](CCC(=O)O)C(=O)N[C@@H](Cc1ccncc1)C(=O)N[C@@H](CC(C)C)C(=O)N[C@@H](CC(C)C)C(=O)N[C@@H](C)C(=O)NCC(=O)NCC(=O)N1CCC[C@H]1C(=O)N[C@@H](CO)C(=O)N[C@@H](CO)C(=O)NCC(=O)N[C@@H](C)C(=O)N1CCC[C@H]1C(=O)N1CCC[C@H]1C(=O)N1CCC[C@H]1C(=O)N[C@@H](CO)C(N)=O)C(C)C)[C@@H](C)CC

What was measured:
human GLP-1 receptor = target: T2, human GLP-1 receptor (human, UniProt P43220 24-463); test: SPA, displacement of [125I]-GLP-1 from hGLP-1R membranes, 0.1% bacitracin
T2 construct: whole, on cells; Assayed as crude membranes of stably transfected HEK293 cells; also called hGLP1R; hGLP-1R
In short: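 Binding buffer: 25 mM HEPES pH 7.4, 2.5 mM CaCl₂, 1 mM MgCl₂, 0.1% bacitracin, 0.003% Tween-20, protease inhibitors without EDTA. Four-parameter nonlinear regression; Kᵢ given as geometric mean ± SEM, n = independent replicates run on different days.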

[1] = target: T1, human glucose-dependent insulinotropic …; test: SPA, displacement of [125I]-GIP from hGIPR membranes, 0.1% bacitracin
human glucagon receptor = target: T3, human glucagon receptor (human, UniProt P47871 26-477); test: SPA, displacement of [125I]-Gcg from hGcgR membranes, 0.1% bacitracin
T3 construct: whole, on cells; Assayed as crude membranes of stably transfected HEK293 cells; also called hGcgR; GcgR
In short: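 Binding buffer: 25 mM HEPES pH 7.4, 2.5 mM CaCl₂, 1 mM MgCl₂, 0.003% Tween-20, protease inhibitors without EDTA. Counted by scintillation after 12 h incubation/settling at room temperature. Four-parameter nonlinear fit; Kᵢ given as geometric mean ± SEM of independent replicates run on different days.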

T3 sequence (P47871 26-477): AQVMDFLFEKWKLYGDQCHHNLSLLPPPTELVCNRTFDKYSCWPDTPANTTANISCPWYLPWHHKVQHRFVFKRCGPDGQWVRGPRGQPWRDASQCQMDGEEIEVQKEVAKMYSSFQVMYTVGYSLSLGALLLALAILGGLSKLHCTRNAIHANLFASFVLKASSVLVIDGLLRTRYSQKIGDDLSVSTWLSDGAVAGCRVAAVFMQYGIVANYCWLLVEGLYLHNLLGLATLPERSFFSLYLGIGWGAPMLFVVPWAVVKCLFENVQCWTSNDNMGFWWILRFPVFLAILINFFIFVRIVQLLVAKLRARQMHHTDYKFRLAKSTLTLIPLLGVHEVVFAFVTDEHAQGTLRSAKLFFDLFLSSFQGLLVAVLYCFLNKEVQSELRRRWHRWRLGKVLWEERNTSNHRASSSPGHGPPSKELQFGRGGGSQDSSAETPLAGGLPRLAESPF

Binder | Ki (human GLP-1 receptor) [nM] | Ki [1] [nM] | Ki (human glucagon receptor) [nM]
B1 | 714 | 0.0374 | 699
B2 | 388 | 0.0617 | 305
B3 | 263 | 0.0293 | 358
B4 | 530 | 0.0487 | 193
